According to paper PMC9454918:

Target: recombinant goose FST protein (148-amino-acid peptide of goose follistatin, residues 93-240) (goose)
Experiment: SDS-PAGE and Western blot; purified recombinant protein on an SDS-PAGE gel stained with Coomassie blue; Western blot with an anti-His tag antibody

stoichiometry N: 2
Substance: recombinant goose FST protein (148-amino-acid peptide of goose follistatin, residues 93-240) (domain or fragment)
